Measured values: patent publication US20190083587A1 (Novo Nordisk, published 2019)
Positions count from the first letter of the chain named. Each block holds one binder with its values, some of them ahead of it.

How the values were obtained:
hTLT-1.126-162 = target: T1, hTLT-1.126-162 (human); test: crystal structure of the Fab0100:hTLT-1.126-162 complex; complex isolated by gel filtration
T1 construct: Made by solid phase peptide synthesis; not glycosylated; also called TLT-1 stalk peptide; chain P
T1 peptide: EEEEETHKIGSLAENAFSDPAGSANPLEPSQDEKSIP
Procedure: The complex was subjected to gel filtration using a Superdex 200 HighLoad 26/60 (GE Healthcare) column eluted with PBS-buffer (pH 7.4) at a flow rate of 1 ml/min. Fractions corresponding to a volume of 3 ml were collected.
The crystal was allowed to soak for about 15 seconds, then flash frozen in liquid N₂ and during data collection kept at 100 K by a cryogenic N₂ gas stream. Crystallographic data were subsequently collected to 1.85 Å resolution at beam-line BL911-3 (Ursby, T. et al. (2004) AIP Conference Proceedings 705, 1241-1246) at MAX-lab, Lund, Sweden. Space group determination, integration and scaling of the data were made in the XDS software package. Cell parameters for the synchrotron data were determined to be 82.54, 65.32, 108.05 Å, 90°, 95.15° and 90°, for a, b, c, α, β and γ, respectively, and space group was determined to be C2. Rsym for intensities of the data set was calculated to be 6.7%.

hTLT-1 ECD-His = target: T2, hTLT-1 ECD-His (human, UniProt Q86YW5 16-162); test: SPR Biacore, mAb immobilised directly, TLT-1 as analyte
T2 construct: Extracellular domain of human TLT-1 with C-terminal His-6 tag; the range 16-168 is computed from these; also called TLT-1-His; His tagged human TLT1
T2 sequence: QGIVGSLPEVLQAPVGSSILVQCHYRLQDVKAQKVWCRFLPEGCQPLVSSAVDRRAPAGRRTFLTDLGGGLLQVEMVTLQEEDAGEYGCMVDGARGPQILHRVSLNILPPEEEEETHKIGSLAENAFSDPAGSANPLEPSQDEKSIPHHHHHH
Procedure: Method: The mAbs of interest were either immobilized directly to a CM5 chip or by capture via a human Fc capture mAb immobilized to a CM5 chip, while TLT-1-His was immobilized by capture via an anti-His mAb CM5 chip for analysis of Fabs.
mAb direct capture: The TLT-1 mAbs were immobilised to a level of approx 500-1000 RU on a CM5 chip (50 μg/ml diluted in Na-acetate, pH 4.0) using the standard procedure recommended by the supplier. Two-fold dilutions of TLT-1 from 200 nM to 0.2 nM were tested for binding to the mAbs. Running and dilution buffer: 10 mM HEPES, 150 mM, 0.005% p20, pH 7.4. Regeneration was obtained by 10 mM Glycine, pH 1.7. mAb capture via human Fc mAb: Human Fc mAb was immobilised to approx 10.000 RU. The mAb of interest was added (approx 100 nM). Two-fold dilutions of TLT-1 from 200 nM to 0.2 nM were tested. Running and dilution buffer: 10 mM HEPES, 150 mM, 0.005% p20, pH 7.4. Regeneration was obtained in 3 M MgCl₂.

hTLT-1 ECD-HPC4 M91A = target: T3, hTLT-1 ECD-HPC4 M91A (human, UniProt Q86YW5 16-162); test: SPR ProteOn, mAb captured by anti-hFc, 100 nM mutant, signal 10 s after injection
T3 construct: Built as m17; also called Ala mutant 24
T3 chain: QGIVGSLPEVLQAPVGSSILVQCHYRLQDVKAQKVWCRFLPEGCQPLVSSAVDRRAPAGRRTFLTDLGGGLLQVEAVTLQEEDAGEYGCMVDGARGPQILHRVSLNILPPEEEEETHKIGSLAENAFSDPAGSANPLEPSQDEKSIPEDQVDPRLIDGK
Procedure: (§1) Each antibody was diluted in 10 mM sodium acetate pH 5.0 to a concentration of 50 μg/ml, and was immobilized to an individual flow cell at 30 μl/min for 240 s. The antibodies were immobilized to flow cells A1-A6 (horizontal direction). After immobilization, the active sites on the flow cell were blocked with 1 M ethanolamine. The final immobilization level of capture antibody typically ranged from approximately 9,000 to 10,000 RU in one experiment. Capture of the anti-TLT-1 antibodies mAb0023, mAb0051, mAb0061 and mAb0062 was conducted by diluting to 0.5 μg/ml into HBS-EP buffer (10 mM HEPES, 150 mM NaCl, 3 mM EDTA, 0.05% surfactant P20, pH 7.4) and injected at 30 μl/min for 60 s in vertical direction, creating interspot reference points with only anti-human Fc antibodies.
(§2) The final capture level of test antibodies typically ranged from approximately 200 to 300 RU in one experiment. Binding of wt or Ala mutant hTLT-1 ECD-HPC4 protein was conducted by injecting over parallel flow cells in horizontal direction to allow for comparative analyses of binding to different captured anti-TLT-1 antibodies relative to binding to the interspot references. Each hTLT-1 ECD-HPC4 protein was diluted to 100 nM, based on the calculated average Mw, into HBS-EP buffer and injected at 30 μl/min for 240 s. The GLM chip was regenerated after each injection cycle of analyte via one 18 s injection of 1 M Formic acid followed by a 18s injection of 50 mM NaOH at 100 μl/min. This regeneration step removed the anti-TLT-1 antibody and any bound TLT-1 from the immobilized capture antibody surface, and allowed for the subsequent binding of the next test sample pair.
(§3) Data analysis was performed using the ProteOn Manager™ Software. No significant non-specific binding to the interspot control surfaces was observed. Binding curves were processed by double referencing (subtraction of interspot control surface signals as well as blank buffer injections over captured anti-TLT-1 antibodies). This allowed correction for instrument noise, bulk shift and drift during sample injections. Binding signal at 10 s after stop of analyte injection was normalized to level of captured anti-TLT-1 antibody and presented as binding relative to wt hTLT-1 ECD-HPC4 protein.

hTLT-1 ECD-HPC4 L42A = target: T4, hTLT-1 ECD-HPC4 L42A (human, UniProt Q86YW5 16-162); test: as above
T4 construct: Built as m17; also called Ala mutant 8
T4 chain: T3 chain with L27A, A76M
Procedure: as §1, §2, §3

hTLT-1 ECD-HPC4 Q43A = target: T5, hTLT-1 ECD-HPC4 Q43A (human, UniProt Q86YW5 16-162); test: as above
T5 construct: Built as m17; also called Ala mutant 9
T5 chain: T3 chain with Q28A, A76M
Procedure: as §1, §2, §3

hTLT-1 ECD-HPC4 R110A = target: T6, hTLT-1 ECD-HPC4 R110A (human, UniProt Q86YW5 16-162); test: as above
T6 construct: Built as m17; also called Ala mutant 30
T6 chain: T3 chain with A76M, R95A
Procedure: as §1, §2, §3

hTLT-1 ECD-HPC4 K46A = target: T7, hTLT-1 ECD-HPC4 K46A (human, UniProt Q86YW5 16-162); test: as above
T7 construct: Built as m17; also called Ala mutant 10
T7 chain: T3 chain with K31A, A76M
Procedure: as §1, §2, §3

binding result (hTLT-1.126-162): binds
B1: Fab0100 (Fab, V domains shown)
VH: EVKLLESGGGLVQPGGSLKLSCAASGFDFSRYWMTWVRQAPGKGLEWIGEINPDSSTINYNPSLKDKFIISRDNAKNTLYLQMSEVRSEDTALYYCASGVFTSWGQGTLVTVSA
VL: DVVMTQTPLSLPVSLGDQASISCRSSQSLVHRNGNTYFHWALQKPGQSPKLLIYKVSNRFSGVPDRFSGSGSGTDFTLKISRVEAEDLGVYFCSQSTHVPYTFGGGTKLEIKR
notes: also called anti-TLT-1 Fab; identical to Fab0061

Kd (hTLT-1 ECD-His): 4.36 nM | koff (hTLT-1 ECD-His): 0.00125 s⁻¹ | kon (hTLT-1 ECD-His): 287000 M⁻¹ s⁻¹ | binding relative to wt hTLT-1 ECD-HPC4 (hTLT-1 ECD-HPC4 M91A): < 0.4 fraction of wt | binding relative to wt hTLT-1 ECD-HPC4 (hTLT-1 ECD-HPC4 L42A): < 0.2 fraction of wt | binding relative to wt hTLT-1 ECD-HPC4 (hTLT-1 ECD-HPC4 Q43A): < 0.2 fraction of wt | binding relative to wt hTLT-1 ECD-HPC4 (hTLT-1 ECD-HPC4 R110A): < 0.2 fraction of wt | binding relative to wt hTLT-1 ECD-HPC4 (hTLT-1 ECD-HPC4 K46A): < 0.2 fraction of wt
B2: mAb0023 (antibody, V domains shown)
VH: EVRLVESGGGLVQPGGSLKLSCATSGFTFSDYFMYWIRQTPEKRLEWVAYISNGGDSSSYPDTVKGRFTISRDNAKNTLYLQMSRLKSEDTAMYYCATNKNWDDYYDMDYWGQGTSVTVSS
VL: DIVVSQSPSSLAVSAGEKVTMSCKSSQSLLNSRTRKNYLAWYQQKPGQSPKLLIYWASTRESGVPDRFTGSGSGTDFTLTISSVQAEDLAVYYCKQSYNLLTFGAGTKLELKR
notes: Mouse VH/VL, human IgG4 / kappa; also called antiTLT-1 0023mab
